# Measured values from patent US8048659.
# T1: H-Cys(Npys)-Trp-Lys-Lys-Lys-Pro-Ala-Pro-Phe-Ala-Ala-Ala-LC-PEGA resin
# T1 chain: CWKKKPAPFAAA
# T2: EuMac-Peptide-PEGA beads (Formula XII)
# T2 chain: CWKKKPAPFAAA
# B1: Proteinase K Molecular Biology, SIGMA Catalog No. P-4850 (protein)
# chain: AAQTNAPWGLARISSTSPGTSTYYYDESAGQGSCVYVIDTGIEASHPEFEGRAQMVKTYYYSSRDGNGHGTHCAGTVGSRTYGVAKKTQLFGVKVLDDNGSGQYSTIIAGMDFVASDKNNRNCPKGVVASLSLGGGYSSSVNSAAARLQSSGVMVAVAAGNNNADARNYSPASEPSVCTVGASDRYDRRSSFSNYGSVLDIFGPGTSILSTWIGGSTRSISGTSMATPHVAGLAAYLMTLGKTTAASACRYIADTANKGDLSNIPFGTVNLLAYNNYQA
# How the values were obtained:
# [1] = target: T1, H-Cys(Npys)-Trp-Lys-Lys-Lys-Pro-Ala-Pro- …
# [2] = target: T2, EuMac-Peptide-PEGA beads (Formula XII)
protein,measurement,setting,value
B1,"absorbance of supernatant (275 nm and 350 nm peaks) after hydrolysis at pH 7.1, 15.1 ug/mL Proteinase K",[1],the release of the free peptide was much greater for the Proteinase K sample
same,"absorbance of supernatant with time after hydrolysis at pH 8.01, 14.2 and 28.4 ug/mL Proteinase K",[1],demonstrate that Proteinase K cleaves a peptide from the Peptide-PEGA-Beads
same,"ratio of cleaved peptide, 28.4 vs. 14.2 ug/mL Proteinase K (absorbance at 280 nm)",[1],"The doubling, of the enzyme concentration resulted in an approximately 1.3 fold increase in cleaved peptide"
same,"absorbance of supernatant at 280 nm after hydrolysis at pH 8.0, 25.5 ug/mL Proteinase K",[2],the Proteinase K did release a cleavage product containing tryptophan from the EuMac-Peptide-PEGA-Beads
same,luminescence of beads before and after 115 min of Proteinase K hydrolysis,[2],The drastic difference in luminescence before and after Proteinase K hydrolysis demonstrated that the EuMac-labeled part of the peptide was released from the bead
